# T1: E. coli FabG (3-ketoacyl-ACP reductase) (Escherichia coli, UniProt P0AEK2)
# T1 construct: homotetramer
# T1 sequence (P0AEK2 1-244): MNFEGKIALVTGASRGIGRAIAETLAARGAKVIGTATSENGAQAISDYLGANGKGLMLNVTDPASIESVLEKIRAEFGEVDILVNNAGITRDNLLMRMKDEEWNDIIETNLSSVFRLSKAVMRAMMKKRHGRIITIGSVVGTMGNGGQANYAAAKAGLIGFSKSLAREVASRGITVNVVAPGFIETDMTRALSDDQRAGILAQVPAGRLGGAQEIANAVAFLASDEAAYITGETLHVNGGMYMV
# What was measured:
# [1] = target: T2, E. coli FabG (3-ketoacyl-ACP reductase) (Escherichia coli, UniProt P0AEK2, Y151F); assay: fluorescence titration; type: binding
# T2 construct: homotetramer
# Source text: (§1) fluorescence titration on E. coli FabG (3-ketoacyl-ACP reductase) | wildtype FabG and mutant proteins S138A and Y151F could bind NADPH with Kd values
# [2] = target: T3, E. coli FabG (3-ketoacyl-ACP reductase) (Escherichia coli, UniProt P0AEK2, S138A); assay: fluorescence titration; type: binding
# T3 construct: homotetramer
# Source text: as §1
# [3] = target: T1, E. coli FabG (3-ketoacyl-ACP reductase); assay: fluorescence titration; type: binding
# Source text: as §1
# purified protein = substrate: NC(=O)C1=CN([C@@H]2O[C@H](COP(=O)(O)OP(=O)(O)OC[C@H]3O[C@@H](n4cnc5c(N)ncnc54)[C@H](OP(=O)(O)O)[C@@H]3O)[C@@H](O)[C@H]2O)C=CC1; assay: purified protein; type: biochemical, Escherichia coli; settings: acetoacetyl-ACP generated in situ (100 μM ACP, 500 μM malonyl-CoA, 500 μM acetyl-CoA, FabD, FabH), 0.1 M sodium phosphate pH 7.0, varied: cofactor
Kd [1] [µM],Kd [2] [µM],Kd [3] [µM],Molecule,Km (purified protein) [µM]
15.8,13.9,13.2,NC(=O)C1=CN([C@@H]2O[C@H](COP(=O)(O)OP(=O)(O)OC[C@H]3O[C@@H](n4cnc5c(N)ncnc54)[C@H](OP(=O)(O)O)[C@@H]3O)[C@@H](O)[C@H]2O)C=CC1 [NADPH],–
–,–,–,"E. coli FabG (3-ketoacyl-ACP reductase) (Escherichia coli K-12) (protein, homotetramer) MNFEGKIALVTGASRGIGRAIAETLAARGAKVIGTATSENGAQAISDYLGANGKGLMLNVTDPASIESVLEKIRAEFGEVDILVNNAGITRDNLLMRMKDEEWNDIIETNLSSVFRLSKAVMRAMMKKRHGRIITIGSVVGTMGNGGQANYAAAKAGLIGFSKSLAREVASRGITVNVVAPGFIETDMTRALSDDQRAGILAQVPAGRLGGAQEIANAVAFLASDEAAYITGETLHVNGGMYMV",99.22
–,–,–,"E. coli FabG (3-ketoacyl-ACP reductase) (Escherichia coli K-12; S138A) (protein, homotetramer) MNFEGKIALVTGASRGIGRAIAETLAARGAKVIGTATSENGAQAISDYLGANGKGLMLNVTDPASIESVLEKIRAEFGEVDILVNNAGITRDNLLMRMKDEEWNDIIETNLSSVFRLSKAVMRAMMKKRHGRIITIGAVVGTMGNGGQANYAAAKAGLIGFSKSLAREVASRGITVNVVAPGFIETDMTRALSDDQRAGILAQVPAGRLGGAQEIANAVAFLASDEAAYITGETLHVNGGMYMV",101.47
–,–,–,"E. coli FabG (3-ketoacyl-ACP reductase) (Escherichia coli K-12; K155A) (protein, homotetramer) MNFEGKIALVTGASRGIGRAIAETLAARGAKVIGTATSENGAQAISDYLGANGKGLMLNVTDPASIESVLEKIRAEFGEVDILVNNAGITRDNLLMRMKDEEWNDIIETNLSSVFRLSKAVMRAMMKKRHGRIITIGSVVGTMGNGGQANYAAAAAGLIGFSKSLAREVASRGITVNVVAPGFIETDMTRALSDDQRAGILAQVPAGRLGGAQEIANAVAFLASDEAAYITGETLHVNGGMYMV",166.45
–,–,–,"E. coli FabG (3-ketoacyl-ACP reductase) (Escherichia coli K-12; Y151F) (protein, homotetramer) MNFEGKIALVTGASRGIGRAIAETLAARGAKVIGTATSENGAQAISDYLGANGKGLMLNVTDPASIESVLEKIRAEFGEVDILVNNAGITRDNLLMRMKDEEWNDIIETNLSSVFRLSKAVMRAMMKKRHGRIITIGSVVGTMGNGGQANFAAAKAGLIGFSKSLAREVASRGITVNVVAPGFIETDMTRALSDDQRAGILAQVPAGRLGGAQEIANAVAFLASDEAAYITGETLHVNGGMYMV",147.72
